B1: Fc(GA(f0) SEED) (designed binder)
chain: EPKSSDKTHTCPPCPAPELLGGPSVFLFPPKPKDTLMISRTPEVTCVVVDVSHEDPEVKFNWYVDGVEVHNAKTKPREEQYNSTYRVVSVLTVLHQDWLNGKEYKCKVSNKALPAPIEKTISKAKGQPREPQVYTLPPPSEELALNELVTLTCLVKGFYPSDIAVEWLQGSQELPREKYLTWAPVLDSDGSFFLYSILRVAAEDWKKGDTFSCSVMHEALHNHYTQKSLDRSPGK
notes: also called "Full" GA SEED; Fc(GA SEED)
B2: DI-KS(GA(f0) SEED) heavy chain with DI-KS light chain (antibody)
heavy: QIQLVQSGPELKKPGSSVKISCKASGYTFTNYGMNWVRQAPGKGLKWMGWINTYTGEPTYADDFKGRFTITAETSTSTLYLQLNNLRSEDTATYFCVRFISKGDYWGQGTTVTVSSASTKGPSVFPLAPSSKSTSGGTAALGCLVKDYFPEPVTVSWNSGALTSGVHTFPAVLQSSGLYSLSSVVTVPSSSLGTQTYICNVNHKPSNTKVDKRVEPKSCDKTHTCPPCPAPELLGGPSVFLFPPKPKDTLMISRTPEVTCVVVDVSHEDPEVKFNWYVDGVEVHNAKTKPREEQYNSTYRVVSVLTVLHQDWLNGKEYKCKVSNKALPAPIEKTISKAKGQPREPQVYTLPPPSEELALNELVTLTCLVKGFYPSDIAVEWLQGSQELPREKYLTWAPVLDSDGSFFLYSILRVAAEDWKKGDTFSCSVMHEALHNHYTQKSLDRSPGK
light: QIVLTQSPASLAVSPGQRATITCSASSSVSYILWYQQKPGQPPKPWIFDTSNLASGFPSRFSGSGSGTSYTLTINSLEAEDAATYYCHQRSGYPYTFGGGTKVEIKRTVAAPSVFIFPPSDEQLKSGTASVVCLLNNFYPREAKVQWKVDNALQSGNSQESVTEQDSKDSTYSLSSTLTLSKADYEKHKVYACEVTHQGLSSPVTKSFNRGEC
notes: It has anti-EpCAM V regions, human IgG1 CH1 and CH2, and human Ckappa; also called antibody heavy chain (no IL-2)
B3: DI-KS(AG(f0) SEED)-IL-2 heavy chain with DI-KS light chain (antibody)
heavy: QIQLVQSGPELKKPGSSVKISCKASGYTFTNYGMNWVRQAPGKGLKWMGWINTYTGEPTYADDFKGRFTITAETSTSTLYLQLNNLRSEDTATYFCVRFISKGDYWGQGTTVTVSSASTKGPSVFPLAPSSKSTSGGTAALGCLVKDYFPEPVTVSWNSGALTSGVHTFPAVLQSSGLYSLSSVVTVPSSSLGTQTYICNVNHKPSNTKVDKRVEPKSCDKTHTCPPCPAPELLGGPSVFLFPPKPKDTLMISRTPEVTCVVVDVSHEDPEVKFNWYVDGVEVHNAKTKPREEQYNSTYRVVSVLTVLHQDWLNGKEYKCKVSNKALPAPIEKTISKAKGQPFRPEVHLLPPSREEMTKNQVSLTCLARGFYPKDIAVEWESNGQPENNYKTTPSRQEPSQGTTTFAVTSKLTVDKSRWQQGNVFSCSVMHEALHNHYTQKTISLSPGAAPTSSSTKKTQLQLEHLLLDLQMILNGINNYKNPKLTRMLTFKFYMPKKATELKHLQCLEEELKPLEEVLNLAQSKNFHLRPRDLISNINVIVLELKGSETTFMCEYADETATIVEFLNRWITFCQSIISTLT
light: B2 light
notes: also called heavy chain-IL2
B4: Fc(GA(s0) SEED) (designed binder)
chain: EPKSSDKTHTCPPCPAPELLGGPSVFLFPPKPKDTLMISRTPEVTCVVVDVSHEDPEVKFNWYVDGVEVHNAKTKPREEQYNSTYRVVSVLTVLHQDWLNGKEYKCKVSNKALPAPIEKTISKAKGQPREPQVYTLPPPSEELALNNQVTLTCLVKGFYPSDIAVEWESNGQPEPREKYLTWAPVLDSDGSFFLYSILRVDASRWQQGNVFSCSVMHEALHNHYTQKSLSLSPGK
notes: It was put together from the cloning scheme: the Ngo MIV/Sma I fragment for the SEED replaces that of CH3 in the pdCs Fc vector; also called "Surface" GA SEED; GA SURF

Columns and labels:
[1] = target: T1, Fc(AG(f0) SEED)-IL2; assay: co-expression in NS/0 cells, SDS-PAGE (figure legend)
T1 construct: also called "Full" AG SEED-IL-2; Fc(AG SEED)-IL2

[2] = target: the molecule itself; assay: co-expression with Fc(AG(f0) SEED)-IL2 in NS/0 cells, non-reducing SDS-PAGE (homodimer)
[3] = target: the molecule itself; assay: co-expression in mammalian cells, non-reducing SDS-PAGE (homodimer)
[4] = target: B3; assay: co-expression in mammalian cells, non-reducing SDS-PAGE (heterodimer)
[5] = target: the molecule itself; assay: co-expression of both heavy chains and the light chain in mammalian cells, non-reducing SDS-PAGE
[6] = target: the molecule itself; assay: co-expression with Fc(AG(s0) SEED)-IL2 in NS/0 cells, non-reducing SDS-PAGE (homodimer)
[7] = target: T2, Fc(AG(s0) SEED)-IL2 (human); assay: co-expression in NS/0 cells, SDS-PAGE (figure legend)
T2 construct: It was put together from the cloning scheme (Ngo MIV/Sma I fragment exchange in the pdCs Fc-IL2 vector); also called "Surface" AG SEED-IL-2; AG SURF

Binder: B1
- binding result [1]: binds
- binding result [2]: binds

Binder: B2
- binding result [3]: binds
- binding result [4]: binds

Binder: B3
- binding result [5]: no binding

Binder: B4
- binding result [6]: binds
- binding result [7]: binds

— patent publication US20070287170A1 (Merck KGaA, published 2007)
